Data as given in PMC2133042.
Where “and” joins values, the source holds several entries; their conditions need not be identical. Equal values may be shown once.

T1: KKFF (myc-tagged wild-type ERGIC-53) (human), P49257
T1 chain: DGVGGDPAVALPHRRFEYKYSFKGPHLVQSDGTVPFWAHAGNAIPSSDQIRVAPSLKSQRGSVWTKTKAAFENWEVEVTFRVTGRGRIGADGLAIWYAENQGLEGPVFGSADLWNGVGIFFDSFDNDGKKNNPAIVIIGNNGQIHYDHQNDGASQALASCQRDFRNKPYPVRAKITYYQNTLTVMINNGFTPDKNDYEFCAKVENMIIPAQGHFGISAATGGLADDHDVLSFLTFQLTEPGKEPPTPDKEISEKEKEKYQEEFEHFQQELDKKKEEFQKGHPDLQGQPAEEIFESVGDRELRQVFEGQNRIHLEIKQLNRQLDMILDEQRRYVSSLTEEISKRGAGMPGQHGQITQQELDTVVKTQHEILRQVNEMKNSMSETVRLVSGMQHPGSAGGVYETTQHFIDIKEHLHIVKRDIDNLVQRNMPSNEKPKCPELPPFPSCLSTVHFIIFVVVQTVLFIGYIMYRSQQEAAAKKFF


How the values were obtained:
[1] = target: KKAA construct (myc-tagged ERGIC-53 with its cytoplasmic tail mutated to R2A6KKAA) (human)
[2] = target: T1, KKFF (myc-tagged wild-type ERGIC-53) …; conditions: remark: other sources report otherwise

stoichiometry N [1] | stoichiometry N [2] | Molecule
2 and 6 |  | KKAA construct (myc-tagged ERGIC-53 with its cytoplasmic tail mutated to R2A6KKAA) (natural protein)
 | 2 and 6 | KKFF (myc-tagged wild-type ERGIC-53), P49257 31-510 (natural protein) DGVGGDPAVALPHRRFEYKYSFKGPHLVQSDGTVPFWAHAGNAIPSSDQIRVAPSLKSQRGSVWTKTKAAFENWEVEVTFRVTGRGRIGADGLAIWYAENQGLEGPVFGSADLWNGVGIFFDSFDNDGKKNNPAIVIIGNNGQIHYDHQNDGASQALASCQRDFRNKPYPVRAKITYYQNTLTVMINNGFTPDKNDYEFCAKVENMIIPAQGHFGISAATGGLADDHDVLSFLTFQLTEPGKEPPTPDKEISEKEKEKYQEEFEHFQQELDKKKEEFQKGHPDLQGQPAEEIFESVGDRELRQVFEGQNRIHLEIKQLNRQLDMILDEQRRYVSSLTEEISKRGAGMPGQHGQITQQELDTVVKTQHEILRQVNEMKNSMSETVRLVSGMQHPGSAGGVYETTQHFIDIKEHLHIVKRDIDNLVQRNMPSNEKPKCPELPPFPSCLSTVHFIIFVVVQTVLFIGYIMYRSQQEAAAKKFF
